The target of assay [1] is FcγRIIIa receptor (UniProt P08637). As to the kind of experiment: SPR (Biacore), FcγRIIIa immobilised; sample with 5.1 % afucosylation. In general terms: Surface plasmon resonance follows binding to a sensor surface in real time, without labels.
The target is the same in assay [2]. The experiment in a line: SPR (Biacore), FcγRIIIa immobilised; sample with 9.6 % afucosylation.
For assay [3] the target is unchanged. The experiment in a line: SPR (Biacore), FcγRIIIa immobilised, run 2.
Assay [4] has the same target. The experiment in a line: SPR (Biacore), FcγRIIIa immobilised, run 1.

Chain of UniProt P08637 (P08637 17-208 limits assumed): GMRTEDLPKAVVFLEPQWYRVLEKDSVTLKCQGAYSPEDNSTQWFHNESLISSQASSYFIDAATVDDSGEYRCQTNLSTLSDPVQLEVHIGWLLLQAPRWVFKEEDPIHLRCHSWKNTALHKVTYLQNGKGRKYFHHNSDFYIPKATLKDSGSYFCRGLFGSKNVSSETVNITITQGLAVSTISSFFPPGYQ

For orientation: Kd means the equilibrium constant for the complex coming apart. Turning to “Itolizumab produced from Chinese Hamster Ovary (CHO) cell line (Bmab-600) (antibody)”, the Kd in the assay with FcγRIIIa receptor [1] worked out at 328 nM; in the assay with FcγRIIIa receptor [2] it was 306 nM.
As for “Itolizumab produced from mouse derived NS0 cell line (T1h) (antibody)”, the Kd in the assay with FcγRIIIa receptor [3] amounted to 508 nM; with FcγRIIIa receptor [4], 372 nM.

The values above are taken from patent publication US20180087080A1.
